Assay results taken from patent US20210206865A1 (Regeneron, published 2021).

Experiments:
[1] = target: T1, human BCMA on the surface of cell lines (NCI-H929, MM.1S, OPM-2, RPMI-8226, Daudi, Raji, MOLP-8, U266) (human, UniProt Q02223 1-184); test: cell-based or functional assay
T1 sequence: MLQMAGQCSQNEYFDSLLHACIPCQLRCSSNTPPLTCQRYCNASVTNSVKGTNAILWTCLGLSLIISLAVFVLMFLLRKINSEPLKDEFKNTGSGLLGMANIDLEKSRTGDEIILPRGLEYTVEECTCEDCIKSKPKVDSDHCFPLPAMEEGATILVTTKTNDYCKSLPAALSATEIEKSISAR

[2] = target: T1, human BCMA on the surface of cell lines …; test: cell-based or functional assay; remark: listed apart in the source
[3] = target: T1, human BCMA on the surface of cell lines …; test: cell-based or functional assay; remark: listed apart in the source
[4] = target: T1, human BCMA on the surface of cell lines …; test: cell-based or functional assay; remark: listed apart in the source
[5] = target: T2, human BCMA-MMH (extracellular domain of human BCMA with C-terminal myc-myc-hexahistidine tag) (human); test: SPR Biacore, 25 C, mAb captured via anti-hFc
T2 construct: Monomeric antigen; also called hBCMA.mmh; hBCMA.mmH
T2 chain: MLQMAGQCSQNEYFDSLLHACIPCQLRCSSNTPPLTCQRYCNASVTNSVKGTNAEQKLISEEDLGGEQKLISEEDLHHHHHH
Method: (§1) The CM5 Biacore sensor surface was derivatized by amine coupling with a monoclonal mouse anti-human Fc antibody (GE, #BR-1008-39) to capture purified anti-BCMA mAbs and anti-BCMA×anti-CD3 bispecific mAbs. All Biacore binding studies were performed in a buffer composed of 0.01M HEPES pH 7.4, 0.15M NaCl, 3 mM EDTA, 0.05% v/v Surfactant P20 (HBS-ET running buffer). […] Antigen samples were then injected over the anti-BCMA and anti-BCMA×anti-CD3 bispecific mAbs captured surfaces at a flow rate of 30 μL/minute. Antibody-reagent association was monitored for 5 minutes while dissociation in HBS-ET running buffer was monitored for 10 minutes. All of the binding kinetics experiments were performed at 25° C. Kinetic association (kₐ) and dissociation (kd) rate constants were determined by fitting the real-time sensorgrams to a 1:1 binding model using Scrubber 2.0c curve fitting software. Binding dissociation equilibrium constants (KD) and dissociative half-lives (t1/2) were calculated from the kinetic rate constants as: […]

[6] = target: T3, monkey BCMA-MFC (monkey BCMA with C-terminal mFc tag) (monkey); test: SPR Biacore, 25 C, mAb captured via anti-hFc
T3 construct: also called mfBCMA.mFc
T3 sequence (chain, as listed by the source limits assumed): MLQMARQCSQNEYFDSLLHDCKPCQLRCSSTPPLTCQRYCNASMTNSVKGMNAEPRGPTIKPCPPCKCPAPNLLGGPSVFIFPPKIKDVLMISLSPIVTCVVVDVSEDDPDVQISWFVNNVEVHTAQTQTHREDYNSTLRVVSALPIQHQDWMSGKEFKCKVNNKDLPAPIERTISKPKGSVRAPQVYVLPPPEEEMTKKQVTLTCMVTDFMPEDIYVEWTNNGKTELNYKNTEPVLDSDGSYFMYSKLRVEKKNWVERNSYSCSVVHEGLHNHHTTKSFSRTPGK
Method: as §1

[7] = target: T4, mouse BCMA-MFC (BCMA with C-terminal mFc tag) (mouse); test: SPR Biacore, 25 C, mAb captured via anti-hFc
T4 construct: Tested at a single concentration of 30 nM; also called mBCMA.mFc
T4 chain: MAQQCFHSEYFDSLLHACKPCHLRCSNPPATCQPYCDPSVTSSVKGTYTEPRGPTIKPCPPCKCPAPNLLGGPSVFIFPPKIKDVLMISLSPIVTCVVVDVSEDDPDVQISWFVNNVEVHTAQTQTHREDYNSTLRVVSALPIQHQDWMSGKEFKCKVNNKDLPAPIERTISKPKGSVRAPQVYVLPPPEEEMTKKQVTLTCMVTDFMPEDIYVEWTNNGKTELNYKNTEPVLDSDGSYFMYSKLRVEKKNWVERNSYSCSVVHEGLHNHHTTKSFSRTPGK
Method: as §1

[8] = target: T5, human CD3 on cells (Jurkat cells, primary human CD8+ T cells) (human, UniProt P07766 23-207; P04234 22-171; P20963 22-164; P09693 23-182); test: flow cytometry, Jurkat cells (human CD3), median EC50, n=5
T5 construct: CD3 complex as part of the TCR on T cells; also called hCD3; Jurkat-hCD3
T5 sequence (P07766 23-207 limits assumed, chain 1 of 4): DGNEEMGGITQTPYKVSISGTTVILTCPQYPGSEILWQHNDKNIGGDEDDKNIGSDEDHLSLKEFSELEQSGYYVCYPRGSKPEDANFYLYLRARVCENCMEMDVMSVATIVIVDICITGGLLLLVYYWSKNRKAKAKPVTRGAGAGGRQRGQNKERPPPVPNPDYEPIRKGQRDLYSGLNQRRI
T5 sequence (P04234 22-171 limits assumed, chain 2 of 4): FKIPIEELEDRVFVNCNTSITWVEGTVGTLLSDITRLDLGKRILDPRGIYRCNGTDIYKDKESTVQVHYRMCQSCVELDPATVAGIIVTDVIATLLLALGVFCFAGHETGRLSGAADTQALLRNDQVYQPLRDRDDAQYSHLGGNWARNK
T5 sequence (P20963 22-164 limits assumed, chain 3 of 4): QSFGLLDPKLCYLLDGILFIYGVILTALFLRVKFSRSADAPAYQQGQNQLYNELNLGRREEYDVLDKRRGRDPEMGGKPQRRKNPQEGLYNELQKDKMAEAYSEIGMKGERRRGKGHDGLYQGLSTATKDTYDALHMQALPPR
T5 sequence (P09693 23-182 limits assumed, chain 4 of 4): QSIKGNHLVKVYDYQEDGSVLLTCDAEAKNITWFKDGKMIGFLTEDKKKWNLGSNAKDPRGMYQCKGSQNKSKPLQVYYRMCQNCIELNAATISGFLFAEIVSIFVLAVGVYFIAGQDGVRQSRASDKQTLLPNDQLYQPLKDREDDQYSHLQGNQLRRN
Method: (§2) Flow cytometric analysis was utilized to determine binding of BCMA×CD3 bispecific antibodies to human and cynomolgus CD3 (Jurkat cells, mfCD3 engineered Jurkat cells, primary human CD8+ and cynomolgus CD8+ T cells). Briefly, 1e05 cells/well were incubated in the presence of FACS wash with block (PBS+1% filtered FBS+5% mouse serum) with a serial dilution of BCMA×CD3 and control antibodies for 30 minutes on ice. After incubation, the cells were washed twice with cold FACS wash (PBS+1% filtered FBS) and bound antibody was detected by incubating with Alexa647-conjugated anti-human secondary antibody on ice for an additional 30 minutes. Wells containing no antibody or secondary only were used as a control. For the detection of monkey and human T cells, a cocktail of human and cynomolgus cross-reactive antibodies to CD4, CD8 and CD16 was added to the anti-human secondary. After incubation, cells were washed, re-suspended in 200 μL cold PBS containing 1% filtered FBS and analyzed by flow cytometry on a BD FACS Canto II. Cells were gated by FSC-H by FSC-A to select singlet events, followed by side and forward scatters to select for live events. For monkey T cells, additional gating on CD8+/CD16-cells was performed.
(§3) EC50 values for FACS binding were calculated using 4-parameter non-linear regression analysis in Prism software.

[9] = target: T5, human CD3 on cells (Jurkat cells, …); test: flow cytometry, primary human CD8+ T cells, median EC50, n=1
Method: as §2, §3

B1: bsAb25441D bispecific antibody (REGN5458), anti-BCMA x anti-CD3 (bispecific antibody, human IgG4 S228P, kappa)
heavy 1: EVQLVESGGGLVQPGGSLRLSCAASGFTFSNFWMTWVRQAPGKGLEWVANMNQDGSEKYYVDSVKGRFTISRDNAKSSLYLQMNSLRAEDTAVYYCARDREYCISTSCYDDFDYWGQGTLVTVSSASTKGPSVFPLAPCSRSTSESTAALGCLVKDYFPEPVTVSWNSGALTSGVHTFPAVLQSSGLYSLSSVVTVPSSSLGTKTYTCNVDHKPSNTKVDKRVESKYGPPCPPCPAPPVAGPSVFLFPPKPKDTLMISRTPEVTCVVVDVSQEDPEVQFNWYVDGVEVHNAKTKPREEQFNSTYRVVSVLTVLHQDWLNGKEYKCKVSNKGLPSSIEKTISKAKGQPREPQVYTLPPSQEEMTKNQVSLTCLVKGFYPSDIAVEWESNGQPENNYKTTPPVLDSDGSFFLYSRLTVDKSRWQEGNVFSCSVMHEALHNHYTQKSLSLSLGK
heavy 2: EVQLVESGGGLVQPGRSLRLSCAASGFTFDDYSMHWVRQAPGKGLEWVSGISWNSGSKGYADSVKGRFTISRDNAKNSLYLQMNSLRAEDTALYYCAKYGSGYGKFYHYGLDVWGQGTTVTVSSASTKGPSVFPLAPCSRSTSESTAALGCLVKDYFPEPVTVSWNSGALTSGVHTFPAVLQSSGLYSLSSVVTVPSSSLGTKTYTCNVDHKPSNTKVDKRVESKYGPPCPPCPAPPVAGPSVFLFPPKPKDTLMISRTPEVTCVVVDVSQEDPEVQFNWYVDGVEVHNAKTKPREEQFNSTYRVVSVLTVLHQDWLNGKEYKCKVSNKGLPSSIEKTISKAKGQPREPQVYTLPPSQEEMTKNQVSLTCLVKGFYPSDIAVEWESNGQPENNYKTTPPVLDSDGSFFLYSRLTVDKSRWQEGNVFSCSVMHEALHNRFTQKSLSLSPGK
light: not shown
notes: Anti-BCMA arm from mAb21581, anti-CD3 arm and common light chain from mAb7221G; also called bsAb25441D9; mAb25441D
- EC50, Jurkat/NFATLuc reporter activation with Daudi cells [1]: 2.1 nM
- EC50, Jurkat/NFATLuc reporter activation with MM1-S cells [1]: 1.2 nM
- EC50, Jurkat/NFATLuc reporter activation with NCI-H929 cells [1]: 0.68 nM
- EC50, Jurkat/NFATLuc reporter activation with OPM-2 cells [1]: 0.66 nM
- EC50, Jurkat/NFATLuc reporter activation with MOLP-8 cells [2]: 1.4 nM
- EC50, Jurkat/NFATLuc reporter activation with RPMI-8226 cells [2]: 0.61 nM
- EC50, Jurkat/NFATLuc reporter activation with Raji cells [2]: 1.6 nM
- Median EC50, % Survival of H929 target cells, human effector cells [3]: 0.103 nM
- Median EC50, % Survival of MM1S target cells, human effector cells [3]: 0.0646 nM
- Median EC50, % Survival of U266 target cells, human effector cells [3]: 0.328 nM
- Median EC50, % T activation with H929 target cells, human effector cells [3]: 0.211 nM
- Median EC50, % T activation with MM1S target cells, human effector cells [3]: 0.0706 nM
- Median EC50, % T activation with U266 target cells, human effector cells [3]: 0.107 nM
- Median EC50, % Survival of H929 target cells, cynomolgus effector cells [4]: 0.0234 nM
- Median EC50, % T activation with H929 target cells, cynomolgus effector cells [4]: 0.0683 nM
- 90 nM hBCMA.mmh Bind (RU) [5]: 19.9 RU
- Kd [5]: 1.06 nM
- t1/2 [5]: 0.22 h
- 30 nM mfBCMA.mFc Bind (RU) [6]: 108 RU
- Kd [6]: 0.167 nM
- t1/2 [6]: 2.19 h
- 30 nM mBCMA.mFc Bind (RU) [7]: 2.7 RU
- binding result [7]: no binding (tested: 30 nM)
- EC50 [8]: 15 nM
- EC50 [9]: 32 nM

B2: bsAb25442D bispecific antibody (REGN5459), anti-BCMA x anti-CD3 (bispecific antibody, human IgG4 S228P, kappa)
heavy 1: EVQLVESGGGLVQPGGSLRLSCAASGFTFSNFWMTWVRQAPGKGLEWVANMNQDGSEKYYVDSVKGRFTISRDNAKSSLYLQMNSLRAEDTAVYYCARDREYCISTSCYDDFDYWGQGTLVTVSSASTKGPSVFPLAPCSRSTSESTAALGCLVKDYFPEPVTVSWNSGALTSGVHTFPAVLQSSGLYSLSSVVTVPSSSLGTKTYTCNVDHKPSNTKVDKRVESKYGPPCPPCPAPPVAGPSVFLFPPKPKDTLMISRTPEVTCVVVDVSQEDPEVQFNWYVDGVEVHNAKTKPREEQFNSTYRVVSVLTVLHQDWLNGKEYKCKVSNKGLPSSIEKTISKAKGQPREPQVYTLPPSQEEMTKNQVSLTCLVKGFYPSDIAVEWESNGQPENNYKTTPPVLDSDGSFFLYSRLTVDKSRWQEGNVFSCSVMHEALHNHYTQKSLSLSLGK
heavy 2: EVQLVESGGGLVQPGRSLRLSCAASGFTFDDYSMHWVRQAPGKGLEWVSGISWNSGSIGYADSVKGRFTISRDNAKNSLYLQMNSLRAEDTALYYCAKYGSGYGKFYYYGMDVWGQGTTVTVSSASTKGPSVFPLAPCSRSTSESTAALGCLVKDYFPEPVTVSWNSGALTSGVHTFPAVLQSSGLYSLSSVVTVPSSSLGTKTYTCNVDHKPSNTKVDKRVESKYGPPCPPCPAPPVAGPSVFLFPPKPKDTLMISRTPEVTCVVVDVSQEDPEVQFNWYVDGVEVHNAKTKPREEQFNSTYRVVSVLTVLHQDWLNGKEYKCKVSNKGLPSSIEKTISKAKGQPREPQVYTLPPSQEEMTKNQVSLTCLVKGFYPSDIAVEWESNGQPENNYKTTPPVLDSDGSFFLYSRLTVDKSRWQEGNVFSCSVMHEALHNRFTQKSLSLSPGK
light: not shown
notes: Anti-BCMA arm from mAb21581, anti-CD3 arm and common light chain from mAb7221G20; also called mAb25442D; mAb25442D-A647
- EC50, Jurkat/NFATLuc reporter activation with Daudi cells [1]: 7.9 nM
- EC50, Jurkat/NFATLuc reporter activation with MM1-S cells [1]: 4.4 nM
- EC50, Jurkat/NFATLuc reporter activation with NCI-H929 cells [1]: 2.7 nM
- EC50, Jurkat/NFATLuc reporter activation with OPM-2 cells [1]: 2.6 nM
- EC50, Jurkat/NFATLuc reporter activation with MOLP-8 cells [2]: 11 nM
- EC50, Jurkat/NFATLuc reporter activation with RPMI-8226 cells [2]: 2.6 nM
- EC50, Jurkat/NFATLuc reporter activation with Raji cells [2]: 7.4 nM
- Median EC50, % Survival of H929 target cells, human effector cells [3]: 0.301 nM
- Median EC50, % Survival of MM1S target cells, human effector cells [3]: 0.288 nM
- Median EC50, % Survival of U266 target cells, human effector cells [3]: 1.66 nM
- Median EC50, % T activation with H929 target cells, human effector cells [3]: 0.3 nM
- Median EC50, % T activation with MM1S target cells, human effector cells [3]: 0.458 nM
- Median EC50, % T activation with U266 target cells, human effector cells [3]: 0.469 nM
- Median EC50, % Survival of H929 target cells, cynomolgus effector cells [4]: 0.0692 nM
- Median EC50, % T activation with H929 target cells, cynomolgus effector cells [4]: 0.158 nM
- 90 nM hBCMA.mmh Bind (RU) [5]: 17 RU
- Kd [5]: 1.38 nM
- koff [5]: 0.00101 s⁻¹
- kon [5]: 730000 M⁻¹ s⁻¹
- t1/2 [5]: 0.192 h
- 30 nM mfBCMA.mFc Bind (RU) [6]: 97 RU
- Kd [6]: 0.148 nM
- koff [6]: 7.15e-05 s⁻¹
- kon [6]: 482000 M⁻¹ s⁻¹
- t1/2 [6]: 2.69 h
- 30 nM mBCMA.mFc Bind (RU) [7]: 2.4 RU
- binding result [7]: no binding (tested: 30 nM)
- EC50 [8]: 558 nM
- EC50 [9]: 4710 nM
